What was measured:
[1] = target: Vg9/Vd1 T cell receptor on SKW3 cells (AG000003287; CLI000001326 (C3821A)) (UniProt Q99603); experiment: flow cytometry, DRC binding at 37°C on SKW3 cells expressing Vg9/Vd1
[2] = target: Vg9/Vd2 T cell receptor on SKW3_4 cells (AG000003284; CLI000001324 (C3819A)) (UniProt Q99603); experiment: flow cytometry, DRC binding at 37°C on SKW3_4 cells expressing Vg9/Vd2
[3] = target: Vg5/Vd2 T cell receptor on SKW3 cells (AG000003285; CLI000001325 (C3820A)) (UniProt A0JD36); experiment: flow cytometry, DRC binding at 37°C on SKW3 cells expressing Vg5/Vd2
Vg5/Vd2 T cell receptor on SKW3 cells (AG000003285; CLI000001325 (C3820A)), sequence (A0JD36 20-115, stated change not applied): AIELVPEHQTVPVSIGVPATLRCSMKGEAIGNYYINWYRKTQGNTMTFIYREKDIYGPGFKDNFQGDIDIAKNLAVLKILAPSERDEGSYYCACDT

[4] = target: Vg5/Vd2 T cell receptor on SKW3 cells (UniProt A0JD36); experiment: flow cytometry, DRC binding 37 C, SKW3 cells expressing Vg5/Vd2
Vg5/Vd2 T cell receptor on SKW3 cells, sequence (A0JD36 20-115): as the sequence (A0JD36 20-115, stated change not applied) above

[5] = target: Vg9/Vd1 T cell receptor on SKW3 cells (UniProt Q99603); experiment: flow cytometry, DRC binding 37 C, SKW3 cells expressing Vg9/Vd1
Vg9/Vd1 T cell receptor on SKW3 cells, sequence (Q99603 21-122): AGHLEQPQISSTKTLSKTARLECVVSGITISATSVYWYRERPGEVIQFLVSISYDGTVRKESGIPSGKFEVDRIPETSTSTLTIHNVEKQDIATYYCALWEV

[6] = target: Vg9/Vd2 T cell receptor on SKW3_4 cells (UniProt Q99603); experiment: flow cytometry, DRC binding 37 C, SKW3_4 cells expressing Vg9/Vd2
Vg9/Vd2 T cell receptor on SKW3_4 cells, sequence (Q99603 21-122, chain 1 of 2): as the sequence (Q99603 21-122) above
Vg9/Vd2 T cell receptor on SKW3_4 cells, sequence (A0JD36 20-115, chain 2 of 2, further chain): as the sequence (A0JD36 20-115, stated change not applied) above

Vg9/Vd1 T cell receptor on SKW3 cells (AG000003287; CLI000001326 (C3821A)), sequence (Q99603 21-122, stated change not applied): as the sequence (Q99603 21-122) above
Vg9/Vd2 T cell receptor on SKW3_4 cells (AG000003284; CLI000001324 (C3819A)), sequence (Q99603 21-122, chain 1 of 2): as the sequence (Q99603 21-122) above
Vg9/Vd2 T cell receptor on SKW3_4 cells (AG000003284; CLI000001324 (C3819A)), sequence (A0JD36 20-115, chain 2 of 2, further chain): as the sequence (A0JD36 20-115, stated change not applied) above

| Max. Activity (fold over background) [1] | Max. Activity (fold over background) [2] | Max. Activity (fold over background) [3] | Max. Activity (fold over background) [4] | Max. Activity (fold over background) [5] | Max. Activity (fold over background) [6] | Binder |
| --- | --- | --- | --- | --- | --- | --- |
| 300 | 119 | 10.3 | – | – | – | VG9B195 (antibody, human IgG1, lambda, V domains shown) VH: EVQLVESGGGLVKPGGSLRLSCAASGFTFSPYTMNWVRQAPGKGLEWVSSISSSSSYMYYADSVKGRFTISRDNAKNSLYLQMNSLRAEDTAVYYCARDGDLVGPTYYFDYWGQGTLVTVSS VL: SYELMQPPSVSVSPGQTASITCSGDKLGDKYACWYQQKPGQSPVLVIYQHNKRPSGIPERFSGSNSGKTATLTISGTQAMDEADYYCQAWDSTTVVFGGGTKLTVLG |
| – | – | – | 207 | 2.08 | 124 | VG9B68 (antibody, human IgG1, kappa, V domains shown) VH: EVQLVESGAEVKKPGSSVKVSCKASGGTFSTYAISWVRQAPGQGLEWMGGIIPIFGTATYAQRFQDRVMITADKSTTTAYMELSSLRSEDTAVFYCARGVGWGSDYYYGLDVWGQGTMVTVSS VL: EIVMTQSPLSSPVTLGQPASISCRSSQSLVHSDGNTYLSWLQQRPGQSPRLLIYKISNRFSGVPDRFSGSGAGTDFTLRITRVEPEDVGVYYCIQATHHPLTFGGGTRLEIKR |
| – | – | – | 11.7 | 0.96 | 11 | VG9B157 (antibody, human IgG1, lambda, V domains shown) VH: EVQLLESGGGLVKPGASLKLSCAASGFTFSNHGMSWVRQTSDKRLEWVASITRGGDTTYYPDNVKGRFTISRENAKNTLYLQMSSLKSDDTALYYCTRGPLTVGYAMDYWGQGTTVTVSS VL: SSELTQDPAVSVALGQTVRITCQGDSLRSYYATWYQQKPGQAPILVIYGENNRPSGIPDRFSGSRSGNTASLTITGAQAEDEADYYCNSRDTGDHHLVFGGGTKLTVLG |
